We go through 1 compound from article PMC12703665, “A Trifunctional, Rare-Earth Theranostic Chelator Platform to Enable Diagnostic Nuclear Imaging, Surgical Resection, and Radiotherapy” (Journal of the American Chemical Society, 2025).

Series [1] relates to PC-3 PIP/flu (PSMA+/PSMA–) tumor xenografts. The series can be described thus: in vivo. Here is the method: For in vivo evaluation, athymic nude mice-bearing bilateral PC-3 PIP/flu (PSMA^+/PSMA^–) tumor xenografts were used (Figure ).
5.1.1 Urine metabolite analysis
Metabolite analysis was performed by analyzing aliquots of 100 µL of mouse urine collected during biodistribution studies. If the collected urine volume was less than 100 µL, 1X DPBS was added in order to bring it up to a final volume of 100 µL. In cases where the radioactivity present in urine decayed to levels too low for detection by HPLC, fractions eluted from the radioHPLC were collected every 30 seconds, and the amount of radioactivity was estimated via gamma counting (Hidex Automatic Gamma Counter). The chromatogram was then reconstructed by plotting the recorded counts per minute recorded for each fraction […]
5.2 In vitro optical imaging
Tumor tissues were harvested from male, nude, athymic mice bearing xenografts from PC3-PIP (PSMA+) and PC3-flu (PSMA-) were fixed for (24) hours in 10% neutral buffered formalin, processed and embedded into paraffin blocks. Tissues were sectioned at 5µm, dried and then deparaffinized with a 25-minute oven bake at 60°C, followed by a series of xylene and alcohol washes
Antigens were prepared in PerkinElmer’s 1X Antigen Retrieval pH 9.0 (AR900250ML) for 8 minutes in the microwave. Tissue sections were blocked with 1X Antibody Diluent/Block buffer (Akoya).
Ab-PSMA, natEu-pepa-pic2-C-Hex-KuE and DAPI staining.
Tissues were stained with Ab-PSMA (Ventana 760-6076; 11.75 µg/mL; 100uL per slide) for 30 minutes at room temperature. Slides were washed with TBS-T and secondary goat anti-rabbit was applied for 10 minutes at room temperature. Slides were washed with TBS-T and Akoya’s Opal dye 520 was applied for 10 minutes at room temperature. Antigen retrieval and blocking steps were performed again.
An aqueous solution of natEu-pepa-pic2-C-Hex-KuE (10 µM) was diluted at 1:1 with 1X Diluent/Block (Akoya) and 100 µL were applied per slide for 2 hours at room temperature. For DAPI staining, DAPI working solution (Akoya) was applied for 10 minutes at room temperature before mounting with ProLong™ Gold Antifade Mountant. Slides were imaged by Nuance Multispectral Scope at 20x objective.
5.3 In vivo biodistribution in PSMA +/- mice models, PET-CT and SPECT imaging.
Male, nude, athymic mice were purchased from Jackson Laboratory. Ten days preceding the imaging study, mice were implanted with 1 × 10^6 cells (PC-3 PIP on the right, PC-3 flu on the left shoulder) in 100 µL of a 1:2 mixture of DPBS 1X/matrigel matrix subcutaneously.
A solution of 100 µL of labeled radiotracer was administered via tail vein injection into 8–10-week-old male nude mice (n = 4 per cohort) bearing PSMA+/- tumors.
For biodistribution studies, mice were euthanized at 2 hours (n=4) post-injection of the radio tracer. Organs were extracted, intestinal content removed, and activity assessed via a gamma counter. Biodistribution analysis values are represented as percentage of injected dose per gram of organ weight (% ID/g).

For series [2] the following is noted: mouse, in vivo.
The mark [3] stands for this setting: 2 h post injection, n = 4, listed as [86Y]YIII-pepa-pic2-C-Hex-KuE.

In the case of `COCCOCCOCCOc1ccc(C#Cc2cc(CN3CCN(Cc4cccc(C(=O)O)n4)CCN(Cc4cc(SC[C@H](N)C(=O)NCCCCCC(=O)NCCCC[C@H](NC(=O)N[C@@H](CCC(=O)O)C(=O)O)C(=O)O)cc(C(=O)O)n4)CC3)nc(C(=O)O)c2)cc1` [[86Y]Y-pepa-pic2-C-Hex-KuE, metal not drawn], in series [1] (setting [3]), the Blood was 1.22 ± 1.01 % ID/g, the Bone turned out to be 0.74 ± 0.21 % ID/g, the Heart is recorded as 0.54 ± 0.25 % ID/g and the “Large Intestine” value was 1.64 ± 0.79 % ID/g. In series [1] (setting [3]), the Liver was determined as 1.00 ± 0.32 % ID/g, the Lungs was 1.96 ± 0.84 % ID/g, the Muscle is reported as 0.35 ± 0.13 % ID/g and the “Small Intestine” value came to 0.59 ± 0.25 % ID/g. Further, in series [1] (setting [3]), the Spleen was 2.43 ± 1.34 % ID/g. The “Tumor +” value in series [1] (PSMA+ tumor, 2 h post injection, n = 4, listed as [86Y]YIII-pepa-pic2-C-Hex-KuE) stood at 12.53 ± 2.95 % ID/g. In series [1] (PSMA- tumor, 2 h post injection, n = 4, listed as [86Y]YIII-pepa-pic2-C-Hex-KuE), this compound registered a Tumor - of 1.20 ±0.45 % ID/g. The “enhancement of probe localization in kidneys compared to tumor tissue” value in series [1] (imaging and biodistribution data) is recorded as 6–10 fold. Besides, the “probe remaining intact (urine metabolite analysis)” value in series [2] is given as above 93%.
